Measurements reported in patent US20240132615A1 (ICHNOS SCIENCES, published 2024).

Biological target: T1, human CD3 on cells (HPB-ALL cells, primary human T cells) (human, UniProt P07766 23-207)
T1 construct: whole, on cells; only the epsilon chain is written
Experiment: flow cytometry, HPB-ALL WT;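 also: binding read by flow cytometry as PE geometric mean fluorescence intensity on live single cells, dead cells excluded with SYTOX Green, only samples with at least 200 gated cells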

T1 sequence (P07766 23-207): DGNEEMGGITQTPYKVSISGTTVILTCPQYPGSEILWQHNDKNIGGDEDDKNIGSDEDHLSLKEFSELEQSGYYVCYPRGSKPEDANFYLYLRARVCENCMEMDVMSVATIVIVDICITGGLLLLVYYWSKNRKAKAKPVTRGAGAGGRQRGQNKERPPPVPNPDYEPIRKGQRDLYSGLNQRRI

binding result	Binder
no binding (tested: 800 nM)	Anti-CD3-UCP03-C1 IgG1LALA (antibody, V domains shown, IgG1 LALA) VH: EVQLLESGGGLVQPGGSLRLSCAASGFTFSQYAMSWVRQAPGKGLEWVSVISPSGATAVYADSVKGRFTISRDNSKNTLYLQMNSLRAEDTAVYYCARGQYDDLDKSGYEFDHWGQGTLVTVSS VL: not shown
no binding (tested: 800 nM)	Anti-CD3-UCP03-B1 IgG1LALA (antibody, V domains shown, IgG1 LALA) VH: EVQLLESGGGLVQPGGSLRLSCAASGFTFSRYAMTWVRQAPGKGLEWVSGISKYGGATAYADSVKGRFTISRDNSKNTLYLQMNSLRAEDTAVYYCARGGTRFDIWGQGTLVTVSS VL: not shown
no binding (tested: 800 nM)	Anti-CD3-UCP03-C5 IgG1LALA (antibody, V domains shown, IgG1 LALA) VH: EVQLVESGGGLIQPGGSLRLSCAASGFTVSDNDMSWVRQAPGKGLEWVSLIYSNGGTHYADSVKGRFTISRDNSKNTLYLQMNSLRAEDTAVYYCARWGISLGEPYFDYWGQGTLVTVSS VL: not shown
no binding (tested: 800 nM)	Anti-CD3-UCP07-F2 IgG1LALA (antibody, V domains shown, IgG1 LALA) VH: QVQLVQSGAEVKKPGSSVKVSCKASGGKFNKYVIGWVRQAPGQGLEWMGGVIPLKGQSKYAQKFQGRVTITADESTSTAYMELSSLRSEDTAVYYCARGRYYGDYSWKFDYWGQGTLVTVSS VL: not shown
no binding (tested: 800 nM)	Anti-CD3-UCP05-D2 IgG1LALA (antibody, V domains shown, IgG1 LALA) VH: EVQLLESGGGLVQPGGSLRLSCAASGFTFNIYALGWVRQAPGKGLEWVSAISQNGGYTLYADSVKGRFTISRDNSKNTLYLQMNSLRAEDTAVYYCARLRGGSGMDVWGQGTLVTVSS VL: not shown
no binding (tested: 800 nM)	Anti-CD3-UCP05-H2 IgG1LALA (antibody, V domains shown, IgG1 LALA) VH: QVQLVQSGAEVKKPGSSVKVSCKASGGGFSHYALNWVRQAPGQGLEWMGGIIPLTGKTAYAQKFQGRVTITADESTSTAYMELSSLRSEDTAVYYCARKISSARDYWGQGTLVTVSS VL: not shown
no binding (tested: 800 nM)	Anti-CD3-UCP05-C1 IgG1LALA (antibody, V domains shown, IgG1 LALA) VH: QVQLVQSGAEVKKPGSSVKVSCKASGGRFSRQALTWVRQAPGQGLEWMGGIIPDHGRPIYAQKFQGRVTITADESTSTAYMELSSLRSEDTAVYYCARGKGGSVAGWKFDVWGQGTLVTVSS VL: not shown
no binding (tested: 800 nM)	Anti-CD3-UCP05-F1 IgG1LALA (antibody, V domains shown, IgG1 LALA) VH: EVQLLESGGGLVQPGGSLRLSCAASGFTFRHYAMTWVRQAPGKGLEWVSAITQRGGYTYYADSVKGRFTISRDNSKNTLYLQMNSLRAEDTAVYYCARAGPSGGGFDYWGQGTLVTVSS VL: not shown
no binding (tested: 800 nM)	Anti-CD3-UCP05-A2 IgG1LALA (antibody, V domains shown, IgG1 LALA) VH: EVQLLESGGGLVQPGGSLRLSCAASGFSFKIYAMGWVRQAPGKGLEWVSAITQQGGATVYADSVKGRFTISRDNSKNTLYLQMNSLRAEDTAVYYCARPGDLGGGFDIWGQGTLVTVSS VL: not shown
no binding (tested: 800 nM)	Anti-CD3-UCP07-D1 IgG1LALA (antibody, V domains shown, IgG1 LALA) VH: EVQLLESGGGLVQPGGSLRLSCAASGFNFNINVMSWVRQAPGKGLEWVSAISQSGGYTLYADSVKGRFTISRDNSKNTLYLQMNSLRAEDTAVYYCARASPYGGGFDYWGQGTLVTVSS VL: not shown
no binding (tested: 800 nM)	Anti-CD3-UCP02-A3 IgG1LALA (antibody, V domains shown, IgG1 LALA) VH: EVQLVESGGGLIQPGGSLRLSCAASGFTFRRYYMTWVRQAPGKGLEWVSVIFPQGGTSYADSVKGRFTISRDNSKNTLYLQMNSLRAEDTAVYYCARVHDVLDDVEWFDHWGQGTLVTVSS VL: not shown
no binding (tested: 800 nM)	Anti-CD3-UCP02-D2 IgG1LALA (antibody, V domains shown, IgG1 LALA) VH: EVQLVESGGGLVKPGGSLRLSCAASGFTFNKAWMGWVRQAPGKGLEWVGRIKSVTDGGITVYAAPVKGRFTISRDDSKNTLYLQMNSLKTEDTAVYYCARVTARYYYFDNWGQGTLVTVSS VL: not shown
no binding (tested: 800 nM)	Anti-CD3-UCP03-F2 IgG1LALA (antibody, V domains shown, IgG1 LALA) VH: EVQLLESGGGLVQPGGSLRLSCAASGFAFSHYAMTWVRQAPGKGLELVSAISQHGGYTAYADSVKGRFTISRDNSKNTLYLQMNSLRAEDTAVYYCARGHPVHAFDFWGQGTLVTVSS VL: not shown
no binding (tested: 800 nM)	Anti-CD3-UCP07-B3 IgG1LALA (antibody, V domains shown, IgG1 LALA) VH: EVQLVESGGGLVKPGGSLRLSCAASGFDFNAAWMTWVRQAPGKGLEWVGRIKSEKNGGKSVYAAPVKGRFTISRDDSKNTLYLQMNSLKTEDTAVYYCARGGRLSSYFDPWGQGTLVTVSS VL: not shown
no binding (tested: 800 nM)	Anti-CD3-UCP03-H2 IgG1LALA (antibody, V domains shown, IgG1 LALA) VH: EVQLVESGGGLIQPGGSLRLSCAASGFTVRDSYMHWVRQAPGKGLEWVSIIYYTGKTHYADSVKGRFTISRDNSKNTLYLQMNSLRAEDTAVYYCARSQYGYFDYWGQGTLVTVSS VL: not shown
no binding (tested: 800 nM)	Anti-CD3-UCP03-G2 IgG1LALA (antibody, V domains shown, IgG1 LALA) VH: QVQLVQSGAEVKKPGSSVKVSCKASGYGFNLYAINWVRQAPGQGLEWMGRIIPEYGHTRYAQKFQGRVTITADESTSTAYMELSSLRSEDTAVYYCARDRYSTYSGGMDYWGQGTLVTVSS VL: not shown
no binding (tested: 800 nM)	Anti-CD3-UCP03-F1 IgG1LALA (antibody, V domains shown, IgG1 LALA) VH: EVQLLESGGGLVQPGGSLRLSCAASGFPFSHHVMTWVRQAPGKGLEWVSAITQRGEYTLYADSVKGRFTISRDNSKNTLYLQMNSLRAEDTAVYYCARGPVPGGDHAFDYWGQGTLVTVSS VL: not shown
no binding (tested: 800 nM)	Anti-CD3-UCP05-G2 IgG1LALA (antibody, V domains shown, IgG1 LALA) VH: QVQLVQSGAEVKKPGSSVKVSCKASGGVFNFYAISWVRQAPGQGLEWMGGITPDGGFVKYAQKFQGRVTITADESTSTAYMELSSLRSEDTAVYYCARSPVSLYYGKYYVYYGAFDVWGQGTLVTVSS VL: not shown
no binding (tested: 800 nM)	Anti-CD3-UCP07-A3 IgG1LALA (antibody, V domains shown, IgG1 LALA) VH: EVQLLESGGGLVQPGGSLRLSCAASGVSFREYVMAWVRQAPGKGLEWVSVISQYGGNTYYADSVKGRFTISRDNSKNTLYLQMNSLRAEDTAVYYCARSGGSVPFDYWGQGTLVTVSS VL: not shown
no binding (tested: 800 nM)	Anti-CD3-UCP03-E2 IgG1LALA (antibody, V domains shown, IgG1 LALA) VH: EVQLVESGGGLIQPGGSLRLSCAASGISVGNNYMSWVRQAPGKGLEWVSVIYPNGRIKYADSVKGRFTISRDNSKNTLYLQMNSLRAEDTAVYYCARGVIDGSYLDFAYWGQGTLVTVSS VL: not shown
no binding (tested: 800 nM)	Anti-CD3-UCP07-E2 IgG1LALA (antibody, V domains shown, IgG1 LALA) VH: EVQLLESGGGLVQPGGSLRLSCAASGFPFSNYAMSWVRQAPGKGLEWVSAISRKGGFTEYADSVKGRFTISRDNSKNTLYLQMNSLRAEDTAVYYCARASYLGGFAYWGQGTLVTVSS VL: not shown
no binding (tested: 800 nM)	Anti-CD3-UCP06-A1 IgG1LALA (antibody, V domains shown, IgG1 LALA) VH: QVQLVQSGAEVKKPGSSVKVSCKASGGHFRGYGISWVRQAPGQGLEWMGEIIPLRGFTIYAQKFQGRVTITADESTSTAYMELSSLRSEDTAVYYCARGSYVDSSYYYYDGFDVWGQGTLVTVSS VL: not shown
no binding (tested: 800 nM)	Anti-CD3-UCP02-B2 IgG1LALA (antibody, V domains shown, IgG1 LALA) VH: EVQLLESGGGLVQPGGSLRLSCAASGFTFSHYVLNWVRQAPGKGLEWVSGISLTGIATIYADSVKGRFTISRDNSKNTLYLQMNSLRAEDTAVYYCARGDPTSAFDVWGQGTLVTVSS VL: not shown
no binding (tested: 800 nM)	Anti-CD3-UCP07-C3 IgG1LALA (antibody, V domains shown, IgG1 LALA) VH: QVQLVQSGAEVKKPGSSVKVSCKASGGSFSRYAIGWVRQAPGQGLEWMGGIIPDVGIAFYAQKFQGRVTITADESTSTAYMELSSLRSEDTAVYYCAREYHYVGAFDIWGQGTLVTVSS VL: not shown
no binding (tested: 800 nM)	Anti-CD3-UCP07-A1 IgG1LALA (antibody, V domains shown, IgG1 LALA) VH: EVQLVESGGGLVKPGGSLRLSCAASGFTFSDYAVNWVRQAPGKGLEWVGRIKSKNEGGTGYAAPVKGRFTISRDDSKNTLYLQMNSLKTEDTAVYYCAREPSYYRDGAADYWGQGTLVTVSS VL: not shown
no binding (tested: 800 nM)	Anti-CD3-UCP03-A3 IgG1LALA (antibody, V domains shown, IgG1 LALA) VH: EVQLLESGGGLVQPGGSLRLSCAASGFTFSSNAMSWVRQAPGKGLEWVSAVGKYGGATSYADSVKGRFTISRDNSKNTLYLQMNSLRAEDTAVYYCARGGPGYSTFYEFDNWGQGTLVTVSS VL: not shown
no binding (tested: 800 nM)	Anti-CD3-UCP07-E1 IgG1LALA (antibody, V domains shown, IgG1 LALA) VH: EVQLLESGGGLVQPGGSLRLSCAASGFTFSRNAMNWVRQAPGKGLEWVSSISRIGGFTIYADSVKGRFTISRDNSKNTLYLQMNSLRAEDTAVYYCARVGSGGKAFDVWGQGTLVTVSS VL: not shown
no binding (tested: 800 nM)	Anti-CD3-UCP05-A1 IgG1LALA (antibody, V domains shown, IgG1 LALA) VH: EVQLLESGGGLVQPGGSLRLSCAASGFTFSTYAMSWVRQAPGKGLELVSAISRHGGFSRYADSVKGRFTISRDNSKNTLYLQMNSLRAEDTAVYYCARASSYGYDPWGQGTLVTVSS VL: not shown
no binding (tested: 800 nM)	Anti-CD3-UCP05-H1 IgG1LALA (antibody, V domains shown, IgG1 LALA) VH: EVQLLESGGGLVQPGGSLRLSCAASGFAFSNSAMSWVRQAPGKGLELVSAISTKGGKTLYADSVKGRFTISRDNSKNTLYLQMNSLRAEDTAVYYCARSSPYGFDYWGQGTLVTVSS VL: not shown

Biological target: T2, Biotinylated Human CD38 Protein, Avitag, His Tag (Acrobiosystems CD8-H82E7) (human, UniProt P28907 43-300, biotinylated)
T2 construct: bought protein; also called biotinylated recombinant human CD38 protein; human CD38-avi-his
Experiment: SPR, Fab as analyte, immobilised biotinylated human CD38;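 also: biacore T200 at 25 °C, single-cycle kinetics with Fab from 7.8 to 2000 nM, 3 min association then 5 min dissociation, fitted with a 1:1 Langmuir model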

Kd [nM]	Binder
71.1	Anti-CD38-UCP02-A7 Fab (Fab, V domains shown, Fab) VH: EVQLLESGGGLVQPGGSLRLSCAASGFTFSFYDMSWVRQAPGKGLEWVSTITLHGGDTYYADSVKGRFTISRDNSKNTLYLQMNSLRAEDTAVYYCARDPSYIYSTSGYFDYWGQGTLVTVSS VL: not shown
595	Anti-CD38-UCP02-B1 Fab (Fab, V domains shown, Fab) VH: QVQLVQSGAEVKKPGSSVKVSCKASGGQFSFYAINWVRQAPGQGLEWMGEIIPDYGVTHYAQKFQGRVTITADESTSTAYMELSSLRSEDTAVYYCARWSYTYGIRYYYKLFDPWGQGTLVTVSS VL: not shown
